Assay results: paper PMC5952258 (ACS Infectious Diseases, 2018)

Biological target: the molecule itself
Assay: crystal structure; sitting drop vapor diffusion at 18 °C; 25% (w/v) PEG 3350, 0.1 M Bis-Tris pH 5.6, 0.1 M ammonium sulfate; resolved to 2.0 Å

B1: Rv2466c C22S mutant (enzyme)
chain: not shown
  binding result: binds
